We go through two molecules from publication PMC8761494, “Structural basis of Nrd1–Nab3 heterodimerization” (Life Science Alliance, 2022).

The target in assay [1] is T1, Nrd1 part (residues 158-222) of the Nrd1_(158-222)-Nab3_(202-261) chimera (S. cerevisiae, UniProt P53617 158-222).
T1 construct: also called Nrd1 segment of the Nrd1–Nab3 chimera; source: E. coli BL21(DE3), purified (IMAC, TEV digestion, second IMAC, gel filtration); not shown: TxA (E. coli thioredoxin A), N-terminal, cleaved; His6, N-terminal, cleaved
T1 sequence (looked up): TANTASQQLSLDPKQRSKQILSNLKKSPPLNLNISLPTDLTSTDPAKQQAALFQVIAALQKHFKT
The assay can be described thus: NMR structure; the two stretches joined on one chain (chimera Nrd1_(158-222)-Nab3_(202-261)); 10 mM sodium acetate pH 5.1, 25 mM NaCl, 1 mM DTT, 25°C, ~1 mM protein. The following applies: both partners purified.

Assay [2] concerns the target T2, Nrd1_(1-222) (S. cerevisiae, UniProt P53617 1-222).
T2 chain: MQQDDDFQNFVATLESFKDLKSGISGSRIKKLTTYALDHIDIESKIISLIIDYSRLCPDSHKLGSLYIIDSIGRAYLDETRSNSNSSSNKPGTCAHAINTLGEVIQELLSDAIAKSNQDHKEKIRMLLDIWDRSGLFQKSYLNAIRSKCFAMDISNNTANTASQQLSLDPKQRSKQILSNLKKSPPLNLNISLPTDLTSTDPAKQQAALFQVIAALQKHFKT
Put plainly: ITC.

Assay [3] deals with T3, Nrd1_(147-222/290-489) (S. cerevisiae, UniProt P53617 147-489, lacking residues 223–289).
T3 sequence: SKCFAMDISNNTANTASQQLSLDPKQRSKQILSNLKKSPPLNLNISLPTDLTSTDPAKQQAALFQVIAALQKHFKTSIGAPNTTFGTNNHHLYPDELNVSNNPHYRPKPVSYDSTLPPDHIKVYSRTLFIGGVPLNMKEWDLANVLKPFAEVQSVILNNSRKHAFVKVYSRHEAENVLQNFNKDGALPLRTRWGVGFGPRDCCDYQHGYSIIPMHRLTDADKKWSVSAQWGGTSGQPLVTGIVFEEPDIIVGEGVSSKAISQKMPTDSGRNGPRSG
The assay can be described thus: ITC. For orientation: Isothermal titration calorimetry measures the heat released or taken up as one component is titrated into another.

Assay [4] concerns the target T4, txA-HTEV-Nrd1_(147-222) NAID (S. cerevisiae, UniProt P53617 147-222).
T4 chain: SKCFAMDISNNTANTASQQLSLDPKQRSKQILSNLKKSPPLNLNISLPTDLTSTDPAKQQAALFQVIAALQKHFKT
The assay can be described thus: ITC.

Assay [5] has as its target T2, Nrd1_(1-222). Put plainly: ITC.
Assay [6] addresses T3, Nrd1_(147-222/290-489). Put plainly: ITC. This is another data set of the same source.
Assay [7] deals with T5, Nrd1_(1-222) (S. cerevisiae, UniProt P53617 1-222).
T5 construct: also called Nrd1 construct including the CID and NAID; source: E. coli BL21(DE3), purified (IMAC, TEV digestion, second IMAC, gel filtration); not shown: TxA (E. coli thioredoxin A), N-terminal, cleaved; His6, N-terminal, cleaved
T5 sequence (looked up): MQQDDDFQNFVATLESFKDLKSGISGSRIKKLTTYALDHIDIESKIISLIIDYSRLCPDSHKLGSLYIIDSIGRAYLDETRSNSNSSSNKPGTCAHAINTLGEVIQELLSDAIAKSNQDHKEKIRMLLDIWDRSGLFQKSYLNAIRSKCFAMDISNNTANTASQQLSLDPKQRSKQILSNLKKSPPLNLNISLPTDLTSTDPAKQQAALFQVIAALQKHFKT
The assay can be described thus: ITC; Nab3_(191-261) (198 μM) in the syringe titrated into Nrd1 variants in the cell (19-54 μM); 15°C; 20 mM potassium phosphate pH 7.0, 150 mM NaCl, 1 mM β-mercaptoethanol; one-site binding model; duplicates. The following applies: both partners purified.

For assay [8], the target named is T6, Nrd1_(147-222/290-489) (S. cerevisiae, UniProt P53617 147-489, lacking residues 223–289).
T6 construct: no linker is mentioned; source: E. coli BL21(DE3), purified (IMAC, TEV digestion, second IMAC, gel filtration); not shown: TxA (E. coli thioredoxin A), N-terminal, cleaved; His6, N-terminal, cleaved
T6 sequence (looked up): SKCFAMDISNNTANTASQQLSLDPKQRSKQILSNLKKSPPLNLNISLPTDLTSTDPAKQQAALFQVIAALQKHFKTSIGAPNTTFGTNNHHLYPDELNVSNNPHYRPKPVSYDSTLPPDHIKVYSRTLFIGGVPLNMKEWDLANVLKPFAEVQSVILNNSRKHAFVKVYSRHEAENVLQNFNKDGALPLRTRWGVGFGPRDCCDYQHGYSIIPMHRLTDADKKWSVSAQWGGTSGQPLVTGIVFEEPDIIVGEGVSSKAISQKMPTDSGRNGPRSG
The description is as above. As to conditions: both partners purified.

The target in assay [9] is T2, Nrd1_(1-222). Put plainly: ITC.
Assay [10] deals with T3, Nrd1_(147-222/290-489). The assay can be described thus: ITC. This is another data set of the same source.
For assay [11], the target named is T4, txA-HTEV-Nrd1_(147-222) NAID. Put plainly: ITC.

Several values for one entry are separate records, joined by “and”; a condition that tells them apart may be missing. Equal values may be shown once. Read-outs that look alike come from different tables or passages of the source.

B1: Nab3 part (residues 202-261) of the Nrd1_(158-222)-Nab3_(202-261) chimera (domain or fragment, S. cerevisiae, UniProt P38996 202-261, looked up)
chain: NMENVNYDLLQKQVKYIMDSNMLNLPQFQHLPQEEKMSAILAMLNSNSDTALSVPPHDST
notes: Nab3, S. cerevisiae, residues 202-261; also called Nab3 segment of the Nrd1–Nab3 chimera; source: E. coli BL21(DE3), purified (IMAC, TEV digestion, second IMAC, gel filtration)
In the case of B1, the binding result in assay [1] is listed as “binds”.

B2: Nrd1 interaction domain of Nab3 (Nab3 191-261) (domain or fragment, S. cerevisiae, UniProt P38996 191-261, looked up)
chain: REENDNTHFPTNMENVNYDLLQKQVKYIMDSNMLNLPQFQHLPQEEKMSAILAMLNSNSDTALSVPPHDST
notes: 15N/13C-labelled or unlabelled for NMR; natural abundance for ITC; also called NRID; Nab3 NRID; source: E. coli BL21(DE3), purified (IMAC, TEV digestion, second IMAC, gel filtration); not shown: TxA (E. coli thioredoxin A), N-terminal, cleaved; His6, N-terminal, cleaved
In general, Kd refers to the free concentration of one partner at which half of the binding sites on the other are occupied at equilibrium, for simple one-to-one binding. Read a low Kd as higher affinity. The term stoichiometry N denotes a count of units in the complex or per binding partner. For B2, the Kd was 140 nM in assay [2]; 20 nM in assay [3]; 23 nM and 25 nM in [4]; 130 nM in assay [5]; 36 nM in assay [6]. Further, in assay [7], the “stoichiometry N” value was 0.4. Also, in assay [8], the “fold tighter binding than with Nrd1_(1-222)” value was roughly 4 fold. For the same molecule, the Ka in assay [9] was 7.22e+06 M⁻¹; in assay [10] it was 4.97e+07 M⁻¹; in assay [11], 4.06e+07 M⁻¹ and 4.34e+07 M⁻¹.
